Data as given in publication PMC11697113, “The Hsc70 system maintains the synaptic SNARE protein SNAP-25 in an assembly-competent state and delays its aggregation [drawing 1]” (The Journal of Biological Chemistry, 2024).

Columns and labels:
Hsc70 [1] = target: T1, Hsc70 (Homo sapiens, UniProt P11142); assay: ATPase activity of Hsc70 (malachite green); type: biochemical; details: no peptide; "usually about"
T1 construct: 6X His-tag (TEV-cleavable) (cleaved yes); made in house; host or cells: E. coli Rosetta (DE3)
Source text: Hsp70s consist of an nucleotide-binding domain (NBD) and a substrate-binding domain (SBD). Hsc70 works using an allosteric mechanism whereby substrate binding at the SBD stimulates the ATP hydrolysis rate at the nucleotide-binding domain. The basal ATPase rate of Hsp70 is low, usually about 0.05 ± 0.009 mol Pi/mol protein, and increases when it is stimulated by binding of a peptide to the canonical site in the SBD. We measured the ability of SNAP-25 peptides SNNP and SNCP to stimulate the ATPase rate of Hsc70 (Fig. 5A). SNNP and SNCP binding cause a 1.5-fold increase of the Hsc70 ATPase rate over basal (observed rates upon addition of SNNP and SNCP were 0.089 ± 0.008 and 0.080 ± 0.005, respectively). In order to confirm that peptides are indeed binding at the canonical binding site of Hsc70, we used the V438F mutant that blocks the binding site ([37]). […] The addition of CSPαJ stimulates the ATPase activity of Hsc70 ∼4-fold with and without peptides.
Figure 5 SNN and SNC peptides interact with the canonical substrate-binding site of Hsc70.A, ATPase activity of Hsc70 (2 μM) in the absence (gray) and presence of 200 μM SNNP (orange) and SNCP (green) peptides. Error bars represent the SDs from three independent experiments. B, binding of SNAP-25 (black), SNNP (orange), LoopP (blue), and SNCP (green) peptides to Hsc70 followed by competition for FITC-p5 peptide using fluorescence anisotropy. Increasing concentrations of the competitors were added to a complex of Hsc70 (5 μM) and FITC-p5 peptide (50 nM). Error bars represent SDs from three independent experiments. […]
We performed ATPase assays to observe the activity of Hsc70 in the presence of SNAP25 peptides. […] Absorbance readings were taken at 620 nm using a BioTek plate reader. […]
(C) ATPase activity of Hsc70 (at 2 μM) in the absence (grey) and presence of 200 μM SNNP (orange) and L(Loop)-SNCP (green) peptides, and in the absence and presence of CSPa-J and CSPa-J/Apg2. The statistical significance was calculated using one-way ANOVA test with Sidak’s multiple comparison and the Hsc70 ATPase activity […]

Hsc70 [2] = target: T1, Hsc70; assay: Competition binding vs FITC-p5 by fluorescence anisotropy; details: Hsc70 5 μM, FITC-p5 50 nM, competitor 0 to 200 μM, phosphate buffer pH 7.4, overnight 4 °C, fluorescence anisotropy 485/516 nm, three independent experiments
Experimental: Figure 3 Hsc70 forms complexes with SNAP-25.A, native PAGE of SNAP-25 (10 μM) in the presence and absence of Hsc70 (2 μM). The difference in signal intensity of His-SNAP25 probed with antibody is likely due to altered epitope exposure upon formation of the SNAP-25-Hsc70 complex. B, binding of SNAP-25 (black), SNAP-25 SNN (SNNFR, orange), and SNC (SNCFR, green)) fragments to Hsc70 by competition followed by fluorescence anisotropy. Increasing concentrations of the competitors were added to a complex of Hsc70 (5 μM) and FITC-p5 peptide (50 nM). Error bars represent SDs from three independent experiments.
To pin down the regions in SNAP-25 where Hsc70 binds we expressed the individual SNN and SNC fragments of SNAP-25 and tested their ability to compete for Hsc70 binding to an FITC-labeled p5 peptide (ALLLSAPRR).
Figure 5 SNN and SNC peptides interact with the canonical substrate-binding site of Hsc70.A, ATPase activity of Hsc70 (2 μM) in the absence (gray) and presence of 200 μM SNNP (orange) and SNCP (green) peptides. Error bars represent the SDs from three independent experiments. B, binding of SNAP-25 (black), SNNP (orange), LoopP (blue), and SNCP (green) peptides to Hsc70 followed by competition for FITC-p5 peptide using fluorescence anisotropy. Increasing concentrations of the competitors were added to a complex of Hsc70 (5 μM) and FITC-p5 peptide (50 nM). Error bars represent SDs from three independent experiments. C, structure of the canonical substrate-binding site of human HspA1 (PDB 4po2) illustrating the location of Hsc70 residues Ile 403 and Ile 440 in red and green spheres, respectively (N.B., Hsc70 and HspA1 share […] sequence identity). The SBD is shown in gray, bound substrate in cyan sticks, and the side chain of the residue occupying the 0th position in the chaperone (“anchor residue”) in orange ball and sticks. For better visualization of the substrate-binding site, residues 512 to 613, 405 to 408, and 431 were removed in this illustration of the structure. D, the Ile region of the ^1H-^13 C HMQC spectra of Ile-^13CH3-labeled Hsc70 (40 μM) in the absence (black) and in the presence of unlabeled SNNP (orange) and SNCP (green) peptides (200 μM).
To further characterize the binding of the SNAP-25 peptides to Hsc70 we used competition assays as above. Peptides SNNP, LOOPP, and SNCP were titrated against the protein-peptide complex of Hsc70 and FITC-p5 and fluorescence anisotropy was monitored to assess how well the SNAP-25 peptides displaced the model peptide.
Direct binding between the p5 peptide (QSRLLLSAPRRAA) and Hsc70 was carried out as described previously ([52]). […] Fluorescence anisotropy was measured in a BioTek plate reader (BioTek) with excitation at 485 nm and emission at 516 nm.
The measured anisotropy values were converted to fraction bound (fb) using the equation: fb=(r−r0)/(rb−r0) where r is the anisotropy value at any point, r0 is the anisotropy value of FITC-p5 in the absence of Hsc70, and rb is the anisotropy value of FITC-p5 when fully bound to Hsc70. […]
For competition assays, the concentrations of Hsc70 and FITC-P5 were kept constant at 5 μM and 50 nM, respectively, and the competitor substrate was titrated from 0 to 200 μM in phosphate buffer. […] Fluorescent anisotropy was measured as described above. […]

[3] = test system: SNARE complex with syntaxin and synaptobrevin; assay: SDS-resistant SNARE complex formation (SDS-PAGE); type: biochemical; details: with Hsc70, mixed with syntaxin and synaptobrevin, 1 M NaCl, 4 °C
Experimental: We took aliquots of SNAP-25 at different time points of the aggregation reaction (at 0 h, in lag phase and at 64 h in the log or saturation phase, Fig. 2A) and mixed them with the SNARE motifs of syntaxin and synaptobrevin to allow the formation of the SNARE complex.
Figure 6 Hsc70 facilitates incorporation of SNAP-25 into the SNARE complex in vitro. SDS-PAGE of SNAP-25 taken from the aggregation reactions (Fig. 2) at 0 h and 64 h after the initiation, without (left) and with Hsc70 (right), and mixed with syntaxin and synaptobrevin for the time indicated below each SDS-PAGE. SNAP-25 is expressed and purified from E. coli; a minor amount of the bacterial Hsp70 homolog DnaK (∼70 kDa) may copurify with SNAP-25, explaining the presence of higher molecular weight bands, with its proteolysis potentially occurring during ∼64-h SNAP-25 aggregation reactions. For synaptobrevin, we attribute the higher molecular weight bands to incomplete cleavage of GST-tagged synaptobrevin.
The SNARE motifs were mixed in an equimolar ratio in the following order: synaptobrevin-2 (29–93), syntaxin-1A (191–253), and SNAP-25 taken from the aggregation reaction, in the presence of 1 M NaCl. The assembly reaction was incubated at 4 °C overnight while rotating. The SNARE motifs were concentrated using a 30-kDa molecular weight cutoff Amicon centrifugation filters and run on 4 to 20% gradient SDS-PAGE.

SNAP-25 [4] = assay: SNAP-25 aggregation kinetics by optical density; type: biochemical; details: SNAP-25 50 μM, Hsc70 5 μM, 37 °C, shaking 300 rpm, OD 360 nm, 20 mM phosphate buffer pH 7.4, 100 μM MgCl2, 100 mM KCl
Experimental: (§1) To test our hypothesis that Hsc70 inhibits SNAP-25 aggregation, we monitored the aggregation kinetics of recombinantly expressed SNAP-25 in the absence and presence of Hsc70 by following optical density at 360 nm (Fig. 2). […] This lag time was elongated to ∼65 h in the presence of Hsc70. In neurons, Hsc70 works in collaboration with its co-chaperone CSPα. […] (Fig. S2A). Apg2 is a member of the Hsp110 family, which is known to suppress protein aggregation ([36]). […] (Fig. S2B).
(§2) Figure 2 Hsc70 delays the aggregation of SNAP-25. Aggregation kinetics of SNAP-25 (50 μM) at 37 °C. Optical density of SNAP-25 was recorded at 360 nm in the absence (black) and in the presence of Hsc70 (5 μM, red), and Hsc70+CSPαJ (5 μM each, blue).
(§3) Aggregation of SNAP-25 at 50 μM was followed by measuring the A360 in a 96-well plate using a BioTek plate reader (BioTek), at 37 °C with shaking at 300 rpm, in the absence and presence of Hsc70 and CSPαJ at 5 μM each, and Apg2 at 0.5 μM. The aggregation buffer included 20 mM phosphate buffer pH 7.4, 100 μM MgCl2, and 100 mM KCl, and an ATP-experiment was carried out using regeneration system (5 mM 2-phosphoenolpyruvate, 0.05 mg/ml pyruvate kinase, and 5 mM ATP), as described previously ([51]).
(§4) Figure SI 2. Apg2 enhances the effect of Hsc70 on SNAP-25. (A) Aggregation kinetics of SNAP-25 (50 μM) at 37 °C. OD600 of SNAP-25 was recorded in the absence (black) and in the presence of Hsc70, Hsc70+CSPa-J (blue) and Hsc70+CSPa-J+Apg2 (turquoise). […]
(§5) concentrations are SNAP-25 (50 μM), Hsc70 (5 μM), CSPa-J (5 μM) and Apg2 (0.5 μM).
(§6) (B) Aggregation kinetics of SNAP-25 (50 μM) at 37 °C. OD600 of SNAP-25 was recorded in the absence (black) and in the presence of Apg2 (blue). […]

[5] = SNAP-25 aggregation kinetics by optical density; type: biochemical; details: without SNAP-25, 37 °C
Experimental: as §1, §2, §3, §4, §5, §6

SNAP-25 [6] = assay: Far-UV CD; type: physicochemical; details: far-UV CD 200–250 nm, 22 °C (Fig. S1)
Experimental: SNAP-25 has four native cysteines that are palmitoylated upon interaction with the membrane. […] For all of our studies, the SNAP-25 CS mutant was used unless otherwise mentioned.
The far-UV CD spectra (200–250 nm) were recorded on a Jasco J-1500 Circular Dichroism Spectrophotometer at 22 °C. The SNAP-25 WT, SNAP-25, and mixture of SNAP-25 and Hsc70 were taken in a 1 mm path length quartz cuvette. Figures show the average of ten scans where the buffer baselines were subtracted. Data were plotted using software using the Origin (Pro) program (OriginLab Corp).

T1 sequence (P11142 whole entry): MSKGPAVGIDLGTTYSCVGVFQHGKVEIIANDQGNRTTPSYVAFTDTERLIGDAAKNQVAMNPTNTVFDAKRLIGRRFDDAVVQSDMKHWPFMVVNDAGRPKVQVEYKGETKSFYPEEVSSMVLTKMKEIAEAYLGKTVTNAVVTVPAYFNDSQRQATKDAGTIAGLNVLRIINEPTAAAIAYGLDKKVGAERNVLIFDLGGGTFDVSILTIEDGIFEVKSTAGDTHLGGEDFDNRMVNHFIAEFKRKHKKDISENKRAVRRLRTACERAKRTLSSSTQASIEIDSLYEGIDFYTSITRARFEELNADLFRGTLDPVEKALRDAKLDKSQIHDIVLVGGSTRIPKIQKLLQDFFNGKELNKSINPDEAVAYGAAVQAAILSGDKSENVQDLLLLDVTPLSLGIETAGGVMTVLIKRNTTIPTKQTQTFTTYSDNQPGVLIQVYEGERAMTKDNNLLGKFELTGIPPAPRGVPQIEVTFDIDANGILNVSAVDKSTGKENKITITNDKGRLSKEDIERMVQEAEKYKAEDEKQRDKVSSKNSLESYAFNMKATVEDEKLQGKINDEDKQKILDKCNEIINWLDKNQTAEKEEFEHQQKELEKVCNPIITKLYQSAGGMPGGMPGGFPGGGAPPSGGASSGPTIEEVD

Substance: 70-kDa heat shock protein [Hsp70]
- basal ATPase rate (Hsc70 [1]): about 0.05 ± 0.009 mol Pi/mol protein

Substance: SNC: SNAP-25 SNC fragment, SNCFR141–201
- competition with p5 peptide for binding to Hsc70 (Hsc70 [2]): competed with p5 peptide for binding to Hsc70

Substance: SNN: SNAP-25 SNN fragment, SNNFR 11–82
- competition with p5 peptide for binding to Hsc70 (Hsc70 [2]): competed with p5 peptide for binding to Hsc70

Substance: heat shock cognate 70 [Hsc70]
- SNARE complex formation by SNAP-25 taken at 0 h and 64 h of aggregation in the presence of Hsc70 [3]: can productively form a SNARE complex
- lag time of SNAP-25 aggregation in the presence of Hsc70 (SNAP-25 [4]): ~65 h
- aggregation of the chaperone alone ([5]; OD 360 nm (Fig. 2)): no aggregation
- aggregation of the chaperone alone ([5]; OD600 (Fig. S2A), Hsc70 5 μM, CSPa-J 5 μM, Apg2 0.5 μM): exhibit no aggregation
- conformational change upon Hsc70-SNAP-25 interaction (SNAP-25 [6]): no significant conformational change
